In patent US8822420B2, “Peptides and aptamers thereof as specific modulators of mutant p53 function” (Universita Degli Studi di Trieste, priority 2008, dated 2014):
No end group written: not given here. Ahx = NCCCCCC(=O)O

What was measured:
p53 R175H [1] = biological target: T1, p53 R175H (Homo sapiens, UniProt P04637, R175H); experiment: Co-immunoprecipitation of EGFP-TNV-PAs with p53 R175H in H1299 cells; assay type: binding; conditions: H1299 cells co-transfected with p53 R175H and EGFP-TNV-PAs, IP anti-GFP
T1 construct: expression of full-length point mutants (hereinafter identified also as mut-p53 or mutant p53); expressed in transfected cells; host or cells: H1299 (p53-null)

p53 R273H = biological target: T2, p53 R273H (Homo sapiens, UniProt P04637, R273H); experiment: EGR1-Luc luciferase assay in H1299 cells, p53 R273H; assay type: cell-based; conditions: peptide 1.6, 4, 20 μM
T2 construct: expression of full-length point mutants (hereinafter identified also as mut-p53 or mutant p53); expressed in transfected cells; host or cells: H1299 (p53-null)
Experimental: (§1) (a) The effect of PAs on mutant p53 transactivating activity was analyzed in MG63 cells transiently transfected with Myc-Luc reporter along with constructs expressing p53 D281G or empty vector and with p[…] vectors expressing PAs or control vectors pLPC-EGFP (EGFP) or p[…] (TNV). The promoter activity measured in each experiment was normalized to the value measured in the absence of mutant p53. RLU: Relative Luciferase Units. […] Expression of mutant p53 and PAs was analyzed by Western Blot with the indicated antibodies. (b) The effect of FsA79 peptide on the transactivation of EGR1 promoter by mutant p53 was analyzed in H1299 cells, transfected with EGR1-Luc reporter along with plasmids encoding either p53R175H (left) or p53R273H (right) and treated with increasing amounts of FsA79 peptide (1.6, 4, 20 μM). […] (c) The effect of PAs on p53 wt transcriptional activity was analyzed in H1299 cells transfected with p21-Luc reporter, wt p53-expressing vector or empty vector along with constructs expressing the EGFP-TNV-PAs or control vectors as in (a). […] (d) The effect of PAs on the transcriptional activity of TAp73α was analyzed as in (c). […] (e) The effect of PAs on p53 wt transcriptional activity was analyzed in H1299 cells transfected with Bax-Luc reporter, wt-p53 expressing vector or empty vector together with constructs expressing EGFP-TNV-PAs or control vectors as in FIG. 3(c). […]

p53 R175H [2] = biological target: T1, p53 R175H; experiment: EGR1-Luc luciferase assay in H1299 cells, p53 R175H; assay type: cell-based; conditions: peptide 1.6, 4, 20 μM
Experimental: as §1

MDA-MB-468 cells = experiment: AnnexinV-PE-Cyan5 staining by flow cytometry, MDA-MB-468 cells; assay type: cell-based; conditions: MDA-MB-468, GFP positive cells, 36 hours after transfection
Experimental: (§2) (a) The apoptotic effect of PAs was analyzed in U20S (expressing p53 wt), H1299 (p53 null), Sk-Br-3 (expressing p53R175H) and MDA-MB-468 (expressing p53R273H) cells. Cells were transfected either with constructs expressing EGFP-TNV-PAs or with pLPCcontrol vector, harvested after 36 hours and stained with propidium iodide before analyzing the DNA content of EGFP-positive cells by flow cytometry. Histograms represent the average and the s.d. of the percentage of cells with sub-G1 DNA content measured in three independent experiments. […] At least 10000 EGFP-positive cells were analyzed in each acquisition. Histograms represent the average and s.d. of three independent experiments. […] Expression of the overexpressed EGFP-TNV-PAs as well as endogenous cleaved PARP (p85), p53R175H and the proapoptotic protein Bax was analyzed by Western Blot with the indicated antibodies. (d) Analysis of AnnexinV-PE-Cyan5 binding of MDA-MB-468 cells treated and analyzed as described in FIG. 4(c). […] Aliquots of cell lysates untreated (NT) or treated with 50 μM Etoposide (Eto) were analyzed by Western Blot. […] After additional 20 hours cells were harvested and analyzed as in FIG. 4(a).
(§3) Sk-Br-3, MDA-MB-468, H1299 or U20S cells were seeded in 6 wells and transfected with pLPCEGFP-TNV16mers or pLPCEGFP-TNV or pLPC. […] Cells were analyzed by cytofluorimeter (FACScalibur) after additional 20 minutes.

Sk-Br-3 cells [3] = experiment: AnnexinV-PE-Cyan5 staining by flow cytometry, Sk-Br-3 cells; assay type: cell-based; conditions: Sk-Br-3, GFP positive cells, 36 hours after transfection
Experimental: as §2, §3

Sk-Br-3 cells [4] = experiment: PARP cleavage (p85) by Western Blot in Sk-Br-3 cells; assay type: cell-based
Experimental: (a) The apoptotic effect of PAs was analyzed in U20S (expressing p53 wt), H1299 (p53 null), Sk-Br-3 (expressing p53R175H) and MDA-MB-468 (expressing p53R273H) cells. Cells were transfected either with constructs expressing EGFP-TNV-PAs or with pLPCcontrol vector, harvested after 36 hours and stained with propidium iodide before analyzing the DNA content of EGFP-positive cells by flow cytometry. Histograms represent the average and the s.d. of the percentage of cells with sub-G1 DNA content measured in three independent experiments. […] At least 10000 EGFP-positive cells were analyzed in each acquisition. Histograms represent the average and s.d. of three independent experiments. […] Expression of the overexpressed EGFP-TNV-PAs as well as endogenous cleaved PARP (p85), p53R175H and the proapoptotic protein Bax was analyzed by Western Blot with the indicated antibodies. […] FACS analysis of DNA content was then performed as in (a). Aliquots of cell lysates untreated (NT) or treated with 50 μM Etoposide (Eto) were analyzed by Western Blot. […] Cells were transfected with EGFP-PAs and then left untreated or treated with 100 μM PRIMA-1. After additional 20 hours cells were harvested and analyzed as in FIG. 4(a). […]
To specifically evaluate the effect on cells expressing the aptamers, propidium-iodide staining was measured only in the GFP positive population.

Sk-Br-3 cells [5] = experiment: FACS analysis of DNA content (propidium iodide) of EGFP-positive Sk-Br-3 cells; assay type: cell-based
Experimental: (a) The apoptotic effect of PAs was analyzed in U20S (expressing p53 wt), H1299 (p53 null), Sk-Br-3 (expressing p53R175H) and MDA-MB-468 (expressing p53R273H) cells. Cells were transfected either with constructs expressing EGFP-TNV-PAs or with pLPCcontrol vector, harvested after 36 hours and stained with propidium iodide before analyzing the DNA content of EGFP-positive cells by flow cytometry. Histograms represent the average and the s.d. of the percentage of cells with sub-G1 DNA content measured in three independent experiments. […] At least 10000 EGFP-positive cells were analyzed in each acquisition. Histograms represent the average and s.d. of three independent experiments. […] Expression of the overexpressed EGFP-TNV-PAs as well as endogenous cleaved PARP (p85), p53R175H and the proapoptotic protein Bax was analyzed by Western Blot with the indicated antibodies. (d) Analysis of AnnexinV-PE-Cyan5 binding of MDA-MB-468 cells treated and analyzed as described in FIG. 4(c). […] FACS analysis of DNA content was then performed as in (a). Aliquots of cell lysates untreated (NT) or treated with 50 μM Etoposide (Eto) were analyzed by Western Blot. […] Cells were transfected with EGFP-PAs and then left untreated or treated with 100 μM PRIMA-1. After additional 20 hours cells were harvested and analyzed as in FIG. 4(a).
Sk-Br-3, MDA-MB-468, H1299 or U20S cells were seeded in 6 wells and transfected with pLPCEGFP-TNV16mers or pLPCEGFP-TNV or pLPC. For cell cycle analysis, cells were collected by trypsinization, recovering also the supernatants, and resuspended in PBS/0.1% Nonidet P-40 (NP-40) containing 2 μg/ml RnaseA. 10 min later, 10 μg/ml propidium iodide was added. Cells were analyzed by cytofluorimeter (FACScalibur) after additional 20 minutes.

p53 D281G = biological target: T3, p53 D281G (Homo sapiens, UniProt P04637, D281G); experiment: c-Myc-Luc luciferase assay in MG63 cells; assay type: cell-based; conditions: EGFP-TNV-PAs, 36 hours
T3 construct: expression of full-length point mutants (hereinafter identified also as mut-p53 or mutant p53); expressed in transfected cells; host or cells: MG63 (p53-null)
Experimental: as §1

TAp73α = biological target: T4, TAp73α (Homo sapiens, UniProt O15350); experiment: Bax-Luc luciferase assay in H1299 cells, TAp73α; assay type: cell-based
T4 construct: expressed in transfected cells; host or cells: H1299
T4 sequence (O15350 1-636): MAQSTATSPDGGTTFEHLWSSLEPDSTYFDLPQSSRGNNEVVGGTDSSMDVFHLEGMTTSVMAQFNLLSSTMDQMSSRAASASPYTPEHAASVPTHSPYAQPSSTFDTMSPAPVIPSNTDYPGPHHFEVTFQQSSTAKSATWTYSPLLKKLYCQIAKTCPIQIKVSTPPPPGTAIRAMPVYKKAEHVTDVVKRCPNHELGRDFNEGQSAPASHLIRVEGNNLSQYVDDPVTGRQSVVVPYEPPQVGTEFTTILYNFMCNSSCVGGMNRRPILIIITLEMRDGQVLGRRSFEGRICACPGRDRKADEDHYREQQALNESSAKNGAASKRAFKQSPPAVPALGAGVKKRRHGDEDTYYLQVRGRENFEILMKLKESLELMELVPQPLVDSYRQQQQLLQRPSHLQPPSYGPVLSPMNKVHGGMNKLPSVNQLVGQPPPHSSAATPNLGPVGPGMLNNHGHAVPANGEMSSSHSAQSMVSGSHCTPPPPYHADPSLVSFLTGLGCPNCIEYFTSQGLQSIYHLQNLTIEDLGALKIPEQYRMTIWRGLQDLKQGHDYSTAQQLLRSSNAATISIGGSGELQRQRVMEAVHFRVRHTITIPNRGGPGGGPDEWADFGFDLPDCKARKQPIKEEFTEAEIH
Experimental: (§4) (a) The effect of PAs on mutant p53 transactivating activity was analyzed in MG63 cells transiently transfected with Myc-Luc reporter along with constructs expressing p53 D281G or empty vector and with pLPC-EGFP-TNV vectors expressing PAs or control vectors pLPC-EGFP (EGFP) or pLPC-EGFP-TNV (TNV). The promoter activity measured in each experiment was normalized to the value measured in the absence of mutant p53. RLU: Relative Luciferase Units. […] Expression of mutant p53 and PAs was analyzed by Western Blot with the indicated antibodies. (b) The effect of FsA79 peptide on the transactivation of EGR1 promoter by mutant p53 was analyzed in H1299 cells, transfected with EGR1-Luc reporter along with plasmids encoding either p53R175H (left) or p53R273H (right) and treated with increasing amounts of FsA79 peptide (1.6, 4, 20 μM). Luciferase assays were performed and represented as in (a). (c) The effect of PAs on p53 wt transcriptional activity was analyzed in H1299 cells transfected with p21-Luc reporter, wt p53-expressing vector or empty vector along with constructs expressing the EGFP-TNV-PAs or control vectors as in (a). Luciferase assays were performed and represented as in (a). (d) The effect of PAs on the transcriptional activity of TAp73α was analyzed as in (c). […] (f) Effect of PAs on TAp73a transcriptional activity on Bax-Luc reporter was analyzed as described in FIG. 3(d). […]

wild-type p53 = biological target: T5, wild-type p53 (Homo sapiens, UniProt P04637); experiment: Bax-Luc luciferase assay in H1299 cells, wild-type p53; assay type: cell-based
T5 construct: expressed in transfected cells; host or cells: H1299
Experimental: as §4

Substance: VWAESCDDCGEYWRYV [A79]
- binding to p53 R175H by co-immunoprecipitation (p53 R175H [1]): showed a stronger interaction with p53 R175H

Substance: AKYCQCAAKVRVTAAM [A3]
- binding to p53 R175H by co-immunoprecipitation (p53 R175H [1]): showed a stronger interaction with p53 R175H

Substance: FAM-Ahx-peptide sA79 ({FAM-Ahx}-DVADWESCGEYWCYRV; cysteine pairing not given here) [FsA79, fluoresceinated version of sA79 peptide]
- effect on transactivation of EGR1-Luc reporter by p53 R273H (p53 R273H): inhibits the transactivation activity of both mutants
- effect on transactivation of EGR1-Luc reporter by p53 R175H (p53 R175H [2]): inhibits the transactivation activity of both mutants

Substance: GPVVPRTQYMSLAFGW [A29]
- AnnexinV positive cells (MDA-MB-468 cells): approximately 30%
- AnnexinV positive cells (Sk-Br-3 cells [3]): approximately 30%
- cleaved p85 fragment of PARP-1 (Sk-Br-3 cells [4]): evident increase
- apoptotic response (sub-G1) compared with Etoposide treatment alone (Sk-Br-3 cells [5]; Sk-Br-3): comparable to that observed upon drug treatment alone
- sub-G1 peak compared with PRIMA-1 (Sk-Br-3 cells [5]; Sk-Br-3, PRIMA-1 100 μM for 20 hours): comparable to that induced by PRIMA-1
- binding to p53 R175H by co-immunoprecipitation (p53 R175H [1]): showed a stronger interaction with p53 R175H

Substance: QRGLYCSCVTNQNAEV [B6, reference compound]
- AnnexinV positive cells (MDA-MB-468 cells): less than 15%
- AnnexinV positive cells (Sk-Br-3 cells [3]): less than 15%
- sub-G1 peak (apoptotic cell death) (Sk-Br-3 cells [5]; Sk-Br-3 (p53 R175H), GFP positive population, 36 hours after transfection): unable to induce apoptosis
- effect on transactivation activity of mutant p53 on c-Myc-Luc reporter (p53 D281G): did not showed any effect

Substance: IQITLTGWSARVTTSG [A60, 16mer peptide aptamer in thioredoxin scaffold; free peptide not synthetized]
- effect on transactivation activity of p73 on Bax-Luc reporter (TAp73α): all aptamers, but A60, do not significantly affect
- binding to p53 R175H by co-immunoprecipitation (p53 R175H [1]): showed a stronger interaction with p53 R175H
- effect on transactivation activity of wild-type p53 on Bax-Luc reporter (wild-type p53): all aptamers, but A60, do not significantly affect
